Assay results reported in the DeepSol protein solubility set.

Assay: soluble on expression in E. coli; label from the status in PepcDB or PDB records

| Sequence | soluble on expression in E. coli |
| --- | --- |
| MGSDKIHHHHHHMESFNEYHIDPKQFPFLKNFQDNWQVIRDEYTSFINNASNEELKFTYDVLGPKSQTIKTKGKSKYSAFGILFQGMFIEKYIQAHQIKYPDYGPDEASKKALVLREKYFTNLANVIKDVNLIEDDIIRNVYYGTFHPGLDIKLHVNYNPHTNRGYLGLIVPEGDVAMKICHDQLYWHEGKFLVLDHSYPHCPHNYTSYDRTVLVVDFFKPDKPRDEVIEFEKEQVTQRMQDNPYSLGVFGKSDKAKEEDFIKYGLAHQLEWDKALI | not soluble |
| MNKVSVVLPTYNCGTYVGVAVESVLQQTYSNYELIIVNDGSTDETDQALAPYLCNNGHIRYIKQGNKGHAGARNTGIRAATGDVIAFIDSDDKWLPEKLGEQVQAMEEDPEVGLVHCNVYGFGENQEVQVRGPLLTQEQLQGYSGYIFDNLYFRKIIITTTTVMIRKSCIDDVGMFDENMTRYGSEDRELFLRILWKYKARYVNKPLAMYRNRSDSEGQNYERMIKGQEYVYEKITSLYGLPQSSKRAVMSKMYQEWAREFYAKGRFADGLTNQVKAIRANPIDMNAYFALKRYARFLFSRATLEHHHHHH | not soluble |
| MTKEKLSWLQQKMLNKSIKKKCQNFRELGYSSINEEDLLTYLLTYRWKKQTHLSVKDCRKDIHKVKPNEFFDYQQLLAQTSKNPLRDWHDIEDLF | not soluble |
| MAHHHHHHMLRGLVNADALTSEQEEHIDQLQHEIDEIWNRRGNYQVDPDAWETMPFFMENITEEDIDKNANCAALASIVYEEVPPDEIAENRKEHGNRALNMALNPNQERRENLARAACYSYTEALQAKGKNTKLSSTIYANRSLAQFIVGNYGHALADAQRSIILDPNYRKAYYRAAKCAFALKKYDMGLQMLEKGRRVVDPPMDAAAQAEFLEMETNCLQGKEQQASEEAKQRRAARSQAAKVSNVARAITSSGIKISSRAEVTSEQMGVYGNPKPYFDTDGMLHVPLLFMYDEYQQTDIMHDVACDVCAAELLDELMPFPWDDRGRYQRLADIVVFFKIDDGANDVQYYEVDQSWPLLEVFREETYEMPQLMPVLHVVCKTSELVDRLEIHRVA | soluble |
| GSHMTPPHNYLAVIKVVGIGGGGVNAVNRMIEQGLKGVEFIAINTDAQALLMSDADVKLDVGRDSTRGLGAGADPEVGRKAAEDAKDEIEELLRGADMVFVTAGEGGGTGTGGAPVVASIARKLGALTVGVVTRPFSFEGKRRSNQAENGIAALRESCDTLIVIPNDRLLQMGDAAVSLMDAFRSADEVLLNGVQGITDLITTPGLINVDFADVKGIMSGAGTALMGIGSARGEGRSLKAAEIAINSPLLEASMEGAQGVLMSIAGGSDLGLFEINEAASLVQDAAHPDANIIFGTVIDDSLGDEVRVTVIAAGFDVSGPGRKPVMGETGGAHRIESAKAGKLTSTLFEPVDAVSVPLHTNGATLSIGGDDDDVDVPPFMRR | soluble |
| METIKISEQELINALCIYIAEKRQVGPEEVLVELMYDDDYGFSAEVEVNGRQQILIQANLIEALRLLLDREYNVNPFAARLQLELDDEEGIYALAKFNNSDD | not soluble |
| MAHHHHHHSLSLQVTTKTGKESQKKTQTTAKSTITVDIKGAVKHEGVYTLPIDSRINDVIEKAGGFSEKADRKSVNLAQKLQDEAVIYVAAIGENISVIRDSQEGKTSQADKANTKETSVKGKVNLNTATLADLQTISGIGEKKAQDILDYREANGGFKSVDDLKNISGIGDKTFEKLKDLVSVDEG | not soluble |
| SLTLNDKYPFTDEDQAIINSYKAVVDGVSALIGEHCEIVLHSLENIEHSAICIANGHNTNRQVGSPITDLALRSLRNMQSESVSKPYFTRAKGSVLMKSVTIAIRNKTQRIIGLLCININLDVPVSQFLQCFMLTEHTNETSSVNFANSVEDLVAQTIEKTIEEVNADRAVANNTKNRQIVLSLYEKGIFDIKDAINLVAERLDISRHTVYLYIRQIKQEQE | soluble |
| MVEKMNEEVMDSKELQVGDVVTGSVTKVEEKQVLVNVGYKTDGVIPISELANVHIEKASDVVELDQTLELKIIKLEEDDLVLSKRAVDAEKAWVELQEKFTSGHVFDVIVKDIVNGGLVVDLGVRGFIPASLVEVHYVEDFTDYKGKTLAVKIVELDREKNRVILSHKAVVELELDSKKKEAISSLKEGDVVEGTVQRLTDFGAFVNVGGVDGLVHISQISHERVEQPSEVLEQGQKVKVKVLSVDADTQRISLSIKAAQPGPWENVAGEIKAGDIREGVVKRLVTFGAFVEILPGVEGLVHVSQIANRHVKNPNEVLEMGQEVKVKVLEVHVAEKRISLSIKEALEENNVTEDYSQYEPNADSATFQLSDIIGEQLKKLKKLEHHHHHH | soluble |
| MGSDKIHHHHHHMQKSLEKCSAIDYLIVLGGRHVNETIYLADERKRLPSLVKHHRASPGRLIRECEIPPLFDVIISGEAEKLIAEIGELFSRCNQSPATFIAENLDMKTEGRWIADFPRIDNTLVSDGVPLKRDELPSVVGTFGVTASFDVFEGRMTSHIFSDTGPGCIYDCNFCSERRSIAGNIQDIQGAPRRLYNQLNETVSAVMQDHPSKGASAFVEDSIFLSGSPVAITQLCQLLEKAPLEVIFGGQFTIDQILRKKDLIQRLAKCGLRYIFIGLETLEPQEIGGMSKDVDGNKQTWKDRFLQALDFMAANHIDCGCALLFGLGEAHISRRNLLNGLIKLKQETGQPITLSANWAVRHPLRSSRESENENYLRRGTPEGELLEYFHRFGEASLEYPLPNVCAPQVGEVKEIILLLNEFEASDA | not soluble |
| HEHNTIPKGASIEVKVQQLDPVNGNKDVGTVTITESNYGLVFTPDLQGLSEGLHGFHIHENPSCEPKEEEGELTAGLGAGGHWDPKGAKQHGYPWQDDAHLGDLPALTVLHDGTATNPVLAPRLKHLDDVRGHSIMIHTGGDNHSDHPAPLGGGGPRMACGVIK | soluble |
| MAHHHHHHMTVYHEQFALVPPQYPRRAVQEAENHRALAALYELVENAIATAENYVAYTEGRLVPLSSRGSELLAASKELRERYRHEAPCGWTEQKVMQHCEQEVTVEEMAELLLRPPLDVSGIRSILRTLQETRTQLPRGRFLLMRDNLSALKPHQPPDLVRDLSDVCGALYEIQYVDLMAELRAELSELDGERDKVQEKLKDAIHLYERALAKGDVVEVERAHRQLIAARYEFVNACAKLMHQILGEDMASQESGFAAEMEALRRDATDSISRFVEALHERRQAFRNDLHNCDKKRLEEDGNHQKCLEAYNAEERETAAQIGQIVEQKKKLVEELRQKARELRDITLKQKEMVEAQVRAKRAEEERVTAYNEFVNMEEQQKHRLLRCLAYFDGMEELTADLRSYVDEMVTRIPQQNLRQVIDQLNDIEAEAFMNAYSGFVSCCGELTVKKMHRLDTLERQARLLEHNRDSAMESLDPNMSNYRLELDDIIEQMKGVSGVINALNATQDAGEQLFQSVEKGVLAKYERSGTPFVHPLQEYGIKSVEERNRFVDRSMHYVENEERKVFEKRNVLNRMRQAVEEDEAATESAIRNLPAAPEY | soluble |
| GMKGENMMVKLIALYEQPEDKQAFDEHYFNTHAPLTRKIPGLRDMKVTRIVGSPMGESKFYLMCEMYYDDHESLQQAMRTDEGKASGKDAMKFAGKLLTLMIGEEMDE | soluble |
| MGSDKIHHHHHHMRILSGMRPTGKLHIGHLVGALENWVKLQEEGNECFYFVADWHALTTHYDDVSKLKEYTRDLVRGFLACGIDPEKSVIFVQSGVKEHAELALLFSMIVSVSRLERVPTYKEIKSELNYKDLSTAGFLIYPVLQAADILIYKAEGVPVGEDQVYHIELTREIARRFNYLYDEVFPEPEAILSRVPKLPGTDGRKMSKSYGNIINLEISEKELEQTILRMMTDPARVRRSDPGNPENCPVWKYHQAFDISEEESKWVWEGCTTASIGCVDCKKLLLKNMKRKLAPIWENFRKIDEDPHYVDDVIMEGTKKAREVAAKTMEEVRRAMNLMF | soluble |
| MGHHHHHHSHMDVPYLINCLVFLFCFSKSNEHSSEYPFVRDLSLEGRLLAKNICTFNIHIHIYTHFFLRQRFTLSPRLKCSGMIIVHCSLYLLGSSNPPT | not soluble |
| MGSDKIHHHHHHMTPSMVEDVRIEQLWIPDSLDGPDSADFLAAVEVGRKVRMQTWGSDDLAYTPLEKLLEFADPYERQVILVARVEGNIVGTVDIALPLADNLDLAEFTLDILPEFQRQGVGRQLLEAAEQFARAEGRSMILIDTNHPGVSLSSSADDQLVPGSGLGFVPMGSREVEFARKTGYTLQHIEQFSSCLLPLDTKLVAELSDEAEQANAGRYRLHHWTDRCPDIWLEGVAALENQAGGDTEPSTRTDEQMVFDGAMIRKAEDATIAQGRRTVVTAVEHIATGTLVGLTTISVLSQRQDVVFQDDTVVMQEHRGNKLGLLIKVANMVRLTEQFPDARVIYTWNAPENRYLLKVNQQLGFNTAGVTGIWQKDLPDLGPSSS | not soluble |
| MSLKREEICRLLADKVNKLKNKENSLSELLPDVRLLYGETPFARTPVMYEPGIIILFSGHKIGYINERVFRYDANEYLLLTVPLPFECETYATSEVPLAGLRLNVDILQLQELLMDEGHHHHHH | not soluble |
| MGSDKIHHHHHHMAKKHEPFVIGDVSVAAGTQQSVKLPAAKLYNDTPMDLHVEVFHGTKAGPVLLVCAAIHGDELNGIEICRRLLGRVNAKTLTGTLLIVPIVNVFGFIQQSRYLPDRRDLNRCFPGSAKGALASRLAHLFSSILVKRATHIVDLHTGAIHRDNLPQIRCDTDDEVMLDMANAFGAPVIMSSKAREGSMRGYANSLNIPCILYEAGEALRFSDMSIKSGVNGVINVMRCLSMTKGKIKTKSTSVNASRSYWVRSESDGLVNIKLKLGERVSKGQVLANIVNPLGGEPSPLLAPTDGIIIGNSNIPVTNEGEALFHIAQFSGDEIEIINDNLDDFMQEYA | not soluble |
| MAHHHHHHMAKDNKGKVKKAAGEETVKYYRVKGKKKILIPVKAKKTIAKKYYGRKLASKKKYIVQGKMRKSIEVGKVAIILSGKHMGKRCIITKVLTSGLLAVVGPYEVNGVPLKRVNPRYVVVTSTNIFKFENMAGLKDEFVKLAEQIEDNSFVKSLEIKKKQKKLLSKKNEGLFMNDVITKIKELMKEDPKMQQLQKIQKEIGTLLKDEIAKNKIFAEYLKSKFTLRNDMALHKMKF | not soluble |
| MSLSNNKQSSTNDGKISIVTSTNVYADIAKNIVGKYGSAKAIIKNSATDPHDFEPTTQDAKELSSTNIIVANGLGYDSWMNKLASSVDKKPVLVGEELMKLKKGANPHIWYSLSMPTEYVDYLVKRLSKIDSKHKAYFEANGKKYLAKINQVKALAKNSKKTDKMVFVSEPVFDYALAEAGYKIGDKDFEKAVENNTDPSPKTINRMTNDIKNKKIAFFVNNTQSSSSTVKTFVKLAKQNNIPVLNVRETIPNHTTYLNWMKENYQNLANISKEGHHHHHH | not soluble |
| MLSAFFKTAHCALRNMPIQTDLVGKWNFVSSENFDEYLKEVGVGWAIRTIATKTKPALEFAVNGDEWTMNSNSTFKNYTLKWKLGTASDEKTADGRDVSSVFSIENDHLVQIETGKGGGKDSRIERYIENGKLVIVCTCNGVKCTRVYEKAA | not soluble |
| MGSDKIHHHHHHMRLKITHRTEYRYDAPVQYLLQRLRLLPVSGQTQTVLSWALKVEGAREEVRFTDHYGNDTRLLSVEGDHDFITVEASGEVVTRDTSGVCGSHQGFAPLWLFAQETPLTAIGGGIRKLAEAVGTGTDIERLHRLMAMIGERVAYTPGSTKATTPAEEALALKTGVCQDHSHIFAAAARAMGFPSRYVSGYLMMDAVEQAASHAWAEAHVPGLGWVAFDPANGISPDERYVKVATGRDYRDASPVSGIRQGQAEERLAVTVTVEQ | not soluble |
